Laboratory results from patent US20060183195A1.

Experiments:
[1] = target: recombinant soluble human CD4 (human) (UniProt P01730); experiment: SPR, sCD4 amine-coupled to sensor chip, antibody flowed over
[2] = target: native human CD4 on the cell surface (human) (UniProt P01730); experiment: flow cytometry, serial dilutions on SupT1 cells, half-maximal fluorescence

Substance	koff [1]	Ka [2]
Leu3a (antibody)	4.2e-05 s⁻¹	–
chimeric Leu3a (antibody)	–	5e+09 M⁻¹
